Test system: Adipogenic progenitor cells
Test: 2D adipogenic differentiation with DMAD components removed or at changed concentration
Assay type: cell-based, bovine
Details: single component removed from DMAD
Procedure: At 90% confluence, proliferated MSCs were trypsinized and seeded in a 96-well collagen coated cell culture plate at 30,000 cells/cm^2 in SF-PM. After 24 hours, adipogenesis was induced by changing SF-PM to DMAD (the serum-free differentiation medium as depicted in Example 1), which was maintained on the cells for a period of 12 days with media changes every 3-4 days. As a control differentiation medium (ctrl), DMEM/F12 with 3% FBS was supplemented with 4 conventional adipogenic inducers (IBMX (Sigma Aldrich-15879; 0.5 mM), dexamethasone (Sigma Aldrich-D4902; 10 μM), rosiglitazone (Sigma Aldrich-R2408; 5 μM) and insulin (Peprotech-10-365; 10 μM)). All 4 inducers were used for the first 3 days of culture and only insulin and rosiglitazone were used for the remaining 9 days.
Cells were fixed on days 6 and 12 with 4% PFA for 20 minutes at room temperature and washed twice with PBS. Cells were then stained with Hoechst (ThermoFisher 493/503, 1:2000) and BODIPY (Sigma Aldrich 345880, 1:1000) in PBS for 30 minutes. Adipogenic differentiation was quantified using the ImageXPress Pico High Content Analyser (HCA; Molecular devices). The parameters measured were total area of lipid, lipid droplet average area and percentage of positive cells. […]

B1: BMP4: Recombinant Human BMP-4 (E. coli derived), 120-05ET from Peprotech (protein, UniProt P12644 293-408, looked up)
Bone morphogenetic protein 4: SPKHHSQRARKKNKNCRRHSLYVDFSDVGWNDWIVAPPGYQAFYCHGDCPFPLADHLNSTNHAIVQTLVNSVNSSIPKACCVPTELSAISMLYLDEYDKVVLKNYQEMVVEGCGCR
- effect of removing the component from DMAD on percentage of positive cells and total lipid area: significantly decreased differentiation
